Columns and labels:
[1] = molecular target: human EGFR (huEGFR) over-expressed on mcl-1-/- mouse embryonic fibroblasts (human, UniProt P00533 25-1210); experiment: cell-based or functional assay
[2] = molecular target: EGFR on EGFR positive non-small cell lung cancer cells NCI-H1650 (UniProt P00533 25-1210); experiment: cell-based or functional assay

Row | Binder | huEGFR+ mcl-1-/- MEF EC50 [1] [nM] | H1650 CTG-3D EC50 [2] [mg/L] | H1650 GFP Flourescence EC50 [2] [mg/L]
1 | AbB-TX (antibody, human IgG1, kappa, V domains shown, synthon TX on reduced interchain cysteines; average DAR 2.2 per ADC) VH: EVQLQESGPGLVKPSQTLSLTCTVSGYSISNDFAWNWIRQPPGKGLEWMGYISYKGNTRYQPSLKSRITISRDTSKNQFFLKLNSVTAADTATYYCVTASRGFPWWGQGTLVTVSS VL: DIQMTQSPSSMSVSVGDRVTITCHSSQDINSNIGWLQQKPGKSFKGLIYHGTNLDDGVPSRFSGSGSGTDYTLTISSLQPEDFATYYCVQYAQFPWTFGGGTKLEIKR | 11 | 2.39 | 3.72
2 | AbB-TV (antibody, human IgG1, kappa, V domains shown, synthon TV on reduced interchain cysteines; average DAR 2.3 per ADC) VH: EVQLQESGPGLVKPSQTLSLTCTVSGYSISNDFAWNWIRQPPGKGLEWMGYISYKGNTRYQPSLKSRITISRDTSKNQFFLKLNSVTAADTATYYCVTASRGFPWWGQGTLVTVSS VL: DIQMTQSPSSMSVSVGDRVTITCHSSQDINSNIGWLQQKPGKSFKGLIYHGTNLDDGVPSRFSGSGSGTDYTLTISSLQPEDFATYYCVQYAQFPWTFGGGTKLEIKR | 2.4 | 0.86 | 0.74
3 | AbG-CZ (antibody, human IgG1, kappa, V domains shown, synthon CZ on reduced interchain cysteines; average DAR 3.4 per ADC) VH: EVQLQESGPGLVKPSQTLSLTCTVSGYSISNDFAWNWIRQLPGKGLEWMGYISYKGNTRYQPSLKSRITISRDTSKNQFFLKLNSVTAADTATYYCVTASRGLPYWGQGTLVTVSS VL: DIQMTQSPSSMSVSVGDRVTITCHSSQDITYNIGWLQQKPGKSFKGLIYHGANLDDGVPSRFSGSGSGTDYTLTISSLQPEDFATYYCVQYDEFPWTFGGGTKLEIKR | 3.4 | 0.07 | 0.25
4 | AbB-YY (antibody, human IgG1, kappa, V domains shown, synthon YY on reduced interchain cysteines; average DAR 2.2 per ADC) VH: EVQLQESGPGLVKPSQTLSLTCTVSGYSISNDFAWNWIRQPPGKGLEWMGYISYKGNTRYQPSLKSRITISRDTSKNQFFLKLNSVTAADTATYYCVTASRGFPWWGQGTLVTVSS VL: DIQMTQSPSSMSVSVGDRVTITCHSSQDINSNIGWLQQKPGKSFKGLIYHGTNLDDGVPSRFSGSGSGTDYTLTISSLQPEDFATYYCVQYAQFPWTFGGGTKLEIKR | 51 | 8.6 | 7.73
5 | AbB-AAD (antibody, human IgG1, kappa, V domains shown, synthon AAD on reduced interchain cysteines; average DAR 2.7 per ADC) VH: EVQLQESGPGLVKPSQTLSLTCTVSGYSISNDFAWNWIRQPPGKGLEWMGYISYKGNTRYQPSLKSRITISRDTSKNQFFLKLNSVTAADTATYYCVTASRGFPWWGQGTLVTVSS VL: DIQMTQSPSSMSVSVGDRVTITCHSSQDINSNIGWLQQKPGKSFKGLIYHGTNLDDGVPSRFSGSGSGTDYTLTISSLQPEDFATYYCVQYAQFPWTFGGGTKLEIKR | 4.6 | 0.16 | 0.59
6 | AbG-TX (antibody, human IgG1, kappa, V domains shown, synthon TX on reduced interchain cysteines; average DAR 3.3 per ADC) VH: EVQLQESGPGLVKPSQTLSLTCTVSGYSISNDFAWNWIRQLPGKGLEWMGYISYKGNTRYQPSLKSRITISRDTSKNQFFLKLNSVTAADTATYYCVTASRGLPYWGQGTLVTVSS VL: DIQMTQSPSSMSVSVGDRVTITCHSSQDITYNIGWLQQKPGKSFKGLIYHGANLDDGVPSRFSGSGSGTDYTLTISSLQPEDFATYYCVQYDEFPWTFGGGTKLEIKR | 5.3 | 0.15 | 0.51
7 | AbA-TX (antibody, human IgG1, kappa, V domains shown, synthon TX on reduced interchain cysteines; average DAR 2.8 per ADC) VH: EVQLQESGPGLVKPSQTLSLTCTVSGYSISRDFAWNWIRQPPGKGLEWMGYISYNGNTRYQPSLKSRITISRDTSKNQFFLKLNSVTAADTATYYCVTASRGFPYWGQGTLVTVSS VL: DIQMTQSPSSMSVSVGDRVTITCHSSQDINSNIGWLQQKPGKSFKGLIYHGTNLDDGVPSRFSGSGSGTDYTLTISSLQPEDFATYYCVQYAQFPWTFGGGTKLEIKR | 16 | > 40 | 13.9

Source: patent publication US20240199745A1, “ANTI-EGFR ANTIBODY DRUG CONJUGATES” (priority 2016, published 2024)
